Experimental findings from patent US20140378382A1 (WISCONSIN ALUMNI RESEARCH FOUNDATION, published 2014) are described below.

Non-standard residues stand in square brackets, D forms with d. Primed or numbered codes have the meaning given here. No end group written: not given here. APC = aminopyrrolidine carboxylic acid (2-aminopyrrolidine-4-carboxylic acid); ACPC″ = 2-aminocyclopentane carboxylic acid (X); ACPC = 2-aminocyclopentane carboxylic acid; β3hW = N[C@H](CC(=O)O)Cc1c[nH]c2ccccc12; hArg = N=C(N)NCCCC[C@H](N)C(=O)O; β3hE = N[C@@H](CCC(=O)O)CC(=O)O; β3hF = N[C@H](CC(=O)O)Cc1ccccc1; β3hL = CC(C)C[C@H](N)CC(=O)O; β3hK = NCCCC[C@H](N)CC(=O)O; β3hM = CSCC[C@H](N)CC(=O)O; β3hD = NC(CC(=O)O)CC(=O)O; β3hS = N[C@@H](CO)CC(=O)O; Aib = CC(C)(N)C(=O)O

First the molecules themselves.
T1: rat parathyroid hormone receptor 1, wild-type (rPTHR-1) (rat, UniProt P25961 27-591)
T1 sequence (looked up): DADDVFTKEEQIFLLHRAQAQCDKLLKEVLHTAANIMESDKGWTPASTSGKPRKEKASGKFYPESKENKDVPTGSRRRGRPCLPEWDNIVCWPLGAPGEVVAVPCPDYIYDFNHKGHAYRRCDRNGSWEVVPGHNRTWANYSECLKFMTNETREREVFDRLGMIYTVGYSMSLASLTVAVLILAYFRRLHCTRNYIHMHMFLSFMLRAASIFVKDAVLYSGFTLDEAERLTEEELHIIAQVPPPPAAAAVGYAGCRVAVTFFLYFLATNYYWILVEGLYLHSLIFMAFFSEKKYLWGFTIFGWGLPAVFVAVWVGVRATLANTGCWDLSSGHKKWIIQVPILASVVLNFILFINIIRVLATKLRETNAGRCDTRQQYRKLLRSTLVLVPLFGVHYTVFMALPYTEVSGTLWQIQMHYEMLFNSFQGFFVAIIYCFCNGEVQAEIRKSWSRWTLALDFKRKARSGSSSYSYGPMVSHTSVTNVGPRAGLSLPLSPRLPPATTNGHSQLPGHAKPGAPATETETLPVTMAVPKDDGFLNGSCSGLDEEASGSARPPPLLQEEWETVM

T2: PTHR-1 (species and cells not stated for the assay) (Homo sapiens (Human), UniProt Q03431 27-593)
T2 sequence: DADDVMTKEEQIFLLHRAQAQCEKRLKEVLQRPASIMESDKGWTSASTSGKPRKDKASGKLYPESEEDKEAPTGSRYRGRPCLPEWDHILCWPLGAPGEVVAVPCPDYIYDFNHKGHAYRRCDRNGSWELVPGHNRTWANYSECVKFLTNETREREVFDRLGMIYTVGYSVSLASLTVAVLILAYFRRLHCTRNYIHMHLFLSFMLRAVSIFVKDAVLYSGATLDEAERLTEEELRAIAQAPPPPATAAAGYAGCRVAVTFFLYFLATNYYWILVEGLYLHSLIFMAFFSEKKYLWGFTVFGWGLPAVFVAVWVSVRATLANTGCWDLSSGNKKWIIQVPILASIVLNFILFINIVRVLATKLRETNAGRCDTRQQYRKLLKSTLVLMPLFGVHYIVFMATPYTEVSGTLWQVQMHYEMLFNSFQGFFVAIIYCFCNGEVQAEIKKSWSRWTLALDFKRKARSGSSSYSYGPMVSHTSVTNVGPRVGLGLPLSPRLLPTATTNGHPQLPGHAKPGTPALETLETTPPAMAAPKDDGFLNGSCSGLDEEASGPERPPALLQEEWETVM

T3: delNT PTHR1 (human, UniProt Q03431 27-593)
T3 sequence (looked up): T2 sequence

B1: CycD6_ACPC(1,5,7) (peptide)
peptide: [ACPC]VSE[ACPC]Q[ACPC]MHNLGK[ACPC]LNS[ACPC]ERVEWLR[APC]KLQDVHN[ACPC]-NH2
modifications: not fully specified; printed as XVSEXQXMHNLGKXLNSXERVEWLRZKLQDVHNX-NH2; also: further β3 residues, positions not shown (marking lost)
B2: CycD6_ACPC(1,7) (peptide)
peptide: [ACPC]VSEIQ[ACPC]MHNLGK[ACPC]LNS[ACPC]ERVEWLR[APC]KLQDVHN[ACPC]-NH2
modifications: not fully specified; printed as XVSEIQXMHNLGKXLNSXERVEWLRZKLQDVHNX-NH2; also: further β3 residues, positions not shown (marking lost)
B3: D6_ACPC(1,5,7) (peptide)
peptide: [ACPC]VSE[ACPC]Q[ACPC]MHNLGKWLNSMERVEWLRKKLQDVHNF-NH2
modifications: not fully specified; printed as XVSEXQXMHNLGKWLNSMERVEWLRKKLQDVHNF-NH2; also: D6 β3 residues, positions not shown (marking lost)
B4: D6_ACPC(1,7) (peptide)
peptide: [ACPC]VSEIQ[ACPC]MHNLGKWLNSMERVEWLRKKLQDVHNF-NH2
modifications: not fully specified; printed as XVSEIQXMHNLGKWLNSMERVEWLRKKLQDVHNF-NH2; also: D6 β3 residues, positions not shown (marking lost)

One assay deals with T1, rat parathyroid hormone receptor 1, …. Put plainly: cell-based or functional assay.
In the case of SVSEIQLMHNLGKHLNSMERVEWLRKKLQDVHNF-NH2 (also: three β3 residues, αααβ pattern, positions not given here) [C3], the “cAMP Max” value was found to be 68 cps × 10-3.

On to SVSEIQLMHNLGKHLNSMERVEWLRKKLQDVHNF-NH2 (also: three β3 residues, αααβ pattern, positions not given here) [D3], for which the “cAMP Max” value came to 65 cps × 10-3.

Take SVSEIQLMHNLGKHLNSMERVEWLRKKLQDVHNF-NH2 (also: five β3 residues, αααβ pattern, positions not given here) [C5]: the “cAMP Max” value is 48 cps × 10-3.

With SVSEIQLMHNLGKHLNSMERVEWLRKKLQDVHNF-NH2 (not fully specified (residue 19)) [A5], the “cAMP Max” value stood at 54 cps × 10-3.

Regarding SVSEIQLMHNLGKHLNSMERVEWLRKKLQDVHNF-NH2 (also: five β3 residues, αααβ pattern, positions not given here) [D5], the “cAMP Max” value stood at 43 cps × 10-3.

The target of a further assay is T2, PTHR-1 (species and cells not stated …). Put plainly: cell-based or functional assay.
On to [ACPC″]V[Aib]EIQ[ACPC″]MHQ[hArg]AKWLNSMRRVEWLRKKLQDVHNF-NH2 [M-ACPC(1,7)], for which the “Fold PTH” value came to 6.3 fold and the “cAMP EC50” value was 0.52 nM.

For the molecule AVAEIQ[ACPC″]MHQ[hArg]AK[ACPC″]LNS[ACPC″]RRV[APC]WLR[APC]KLQ[ACPC″]VHN[ACPC″]-NH2 [M-FcycD6], the “Fold PTH” value is 6.3 fold and the “cAMP EC50” value worked out at 0.51 nM.

On to [ACPC″]V[Aib]E[ACPC″]Q[ACPC″]MHQ[hArg]AKWLNSMRRVEWLRKKLQDVHNF-NH2 [M-ACPC(1,5,7)], for which the “Fold PTH” value amounted to 4.9 fold and the “cAMP EC50” value stood at 0.4 nM.

Take AVAEIQ[ACPC″]MHQ[hArg]AKWLNSMRRVEWLRKKLQDVHNF-NH2 (not fully specified (residues 14, 18, 22, 26, 30, 34)) [M-D6]: the “Fold PTH” value amounted to 5.4 fold and the “cAMP EC50” value came out at 0.44 nM.

In the case of [ACPC″]V[Aib]EIQ[ACPC″]MHQ[hArg]AK[β3hW]LNS[β3hM]RRV[β3hE]WLR[β3hK]KLQ[β3hD]VHN[β3hF]-NH2 (also: β3 residues (bold, underlined) not marked in the text) [M-D6_ACPC(1,7)], the “Fold PTH” value amounted to 10.2 fold and the “cAMP EC50” value was determined as 0.83 nM.

A further assay has the same target. Put plainly: cell-based or functional assay. This is another data set of the same source.
Take SVSEIQLMHNLGK[ACPC″]LNS[ACPC″]ERV[β3hE]WLR[APC]KLQ[β3hD]VHN[ACPC″]-NH2 (also: β3 residues (bold, underlined) not marked in the text) [cycD6]: the “Fold PTH” value is 1.3 fold and the “cAMP EC50” value is 0.1 nM.

As for B1, the “Fold PTH” value is 266 fold and the “cAMP EC50” value came out at 21.7 nM.

For B2, the “Fold PTH” value turned out to be 7.3 fold and the “cAMP EC50” value stood at 0.59 nM.

On to B3, for which the “Fold PTH” value turned out to be 2040 fold and the “cAMP EC50” value is 167 nM.

Consider SVSEIQLMHNLGK[ACPC]LNS[ACPC]ERV[APC]WLR[APC]KLQ[ACPC]VHN[ACPC]-NH2 (not fully specified; printed as SVSEIQLMHNLGKXLNSXERVZWLRZKLQXVHNX-NH2) [FcycD6], for which the “Fold PTH” value was 3.2 fold and the “cAMP EC50” value is 0.26 nM.

For [ACPC]VSEIQ[ACPC]MHNLGKHLNSMERVEWLRKKLQDVHNF-NH2 [ACPC(1,7)], the “Fold PTH” value came to 1.7 fold and the “cAMP EC50” value amounted to 0.14 nM.

As to B4, the “Fold PTH” value came out at 22.6 fold and the “cAMP EC50” value is 1.84 nM.

In the case of [ACPC″]VSEIQ[ACPC″]MHNLGK[ACPC″]LNS[ACPC″]ERV[APC]WLR[APC]KLQ[ACPC″]VHN[ACPC″]-NH2 [FcycD6_ACPC(1,7)], the “Fold PTH” value amounted to 8.7 fold and the “cAMP EC50” value was 0.71 nM.

The target of another assay is T3, delNT PTHR1. Put plainly: cell-based or functional assay.
For the molecule SVSEIQ[β3hL]MHNLGKHLNSMERVEWLRKKLQDVHNF-NH2 [β3Leu(7) PTH(1-34)], the “cAMP EC50” value was 67000 nM.

Turning to SVS[β3hE]IQLMHNLGKHLNSMERVEWLRKKLQDVHNF-NH2 [β3Glu(4) PTH(1-34)], the “cAMP EC50” value came to 15000 nM.

As to SVS[ACPC]IQLMHNLGKHLNSMERVEWLRKKLQDVHNF-NH2 [ACPC(4) PTH(1-34)], the “Fold PTH” value came to 510 fold and the “cAMP EC50” value came out at 32000 nM.

SV[β3hS]EIQLMHNLGKHLNSMERVEWLRKKLQDVHNF-NH2 [β3Ser(3) PTH(1-34)]: the “cAMP EC50” value worked out at 340000 nM.

Take SVSEIQLMZNLGKHLNSMERVEWLRKKLQDVHNF (APC (Z) at 9; C-terminal amide) [APC(9) PTH(1-34)]: the “Fold PTH” value came to 87 fold and the “cAMP EC50” value is 5400 nM.

As to SVSEIQL[β3hM]HNLGKHLNSMERVEWLRKKLQDVHNF-NH2 [β3Met(8) PTH(1-34)], the “cAMP EC50” value was determined as 20000 nM.
